Drawing on patent publication US20230158141A1, this text covers binding activity after mutation, % of native IL2 and binding activity after conjugating to S3, % of native IL2 for two substances.

In one test the target is T1, IL2Rb (UniProt P14784).
T1 sequence (looked up): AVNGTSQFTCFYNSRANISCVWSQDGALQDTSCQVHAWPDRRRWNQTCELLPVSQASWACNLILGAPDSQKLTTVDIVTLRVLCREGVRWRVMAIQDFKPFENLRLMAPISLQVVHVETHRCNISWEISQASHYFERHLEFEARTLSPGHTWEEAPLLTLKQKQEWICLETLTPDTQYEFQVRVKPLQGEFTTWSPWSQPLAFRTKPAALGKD
In words: IP and ELISA; Cys mutant, no arm. (In an ELISA, binding on a coated surface is turned into a signal by an enzyme label.)

The target in another test is T2, IL2 receptor gamma (UniProt P31785).
T2 sequence (looked up): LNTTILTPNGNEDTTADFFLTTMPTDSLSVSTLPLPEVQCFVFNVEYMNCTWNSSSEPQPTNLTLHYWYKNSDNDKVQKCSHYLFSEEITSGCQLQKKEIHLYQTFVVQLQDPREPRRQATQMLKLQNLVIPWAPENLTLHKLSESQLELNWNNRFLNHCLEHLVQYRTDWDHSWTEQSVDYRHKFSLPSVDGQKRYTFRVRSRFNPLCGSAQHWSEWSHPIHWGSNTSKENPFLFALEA
As to the kind of experiment: IP and ELISA; S3 on the Cys.

Substance “IL2-Leu80Cys (from UniProt P60568 21-153) (ligand)” had a binding activity after mutation, % of native IL2 with IL2Rb of 27%.

“IL2-Thr51Cys (from UniProt P60568 21-153) (ligand)” yielded a binding activity after conjugating to S3, % of native IL2 in the test with IL2 receptor gamma of 89.7%.
